For one protein, Km and kcat results are on record in publication PMC4336777.

Substrate in the data set: CC(=O)N1c2ccc(O)cc2Oc2cc(O)ccc21
Nature of the data set: purified protein, by the assay type.

Setting [1] is: other: Lineweaver-Burk curves in the absence of inhibitor.
Where [2] appears, read: other: initial velocities, plate reader, MPO 23 nM, H2O2 22 μM, error 2 x SD.

B1: Myeloperoxidase (MPO) (Homo sapiens) (protein)
chain 1: not shown
chain 2: VNCETSCVQQPPCFPLKIPPNDPRIKNQADCIPFFRSCPACPGSNITIRNQINALTSFVDASMVYGSEEPLARNLRNMSNQLGLLAVNQRFQDNGRALLPFDNLHDDPCLLTNRSARIPCFLAGDTRSSEMPELTSMHTLLLREHNRLATELKSLNPRWDGERLYQEARKIVGAMVQIITYRDYLPLVLGPTAMRKYLPTYRSYNDSVDPRIANVFTNAFRYGHTLIQPFMFRLDNRYQPMEPNPRVPLSRVFFASWRVVLEGGIDPILRGLMATPAKLNRQNQIAVDEIRERLFEQVMRIGLDLPALNMQRSRDHGLPGYNAWRRFCGLPQPETVGQLGTVLRNLKLARKLMEQYGTPNNIDIWMGGVSEPLKRKGRVGPLLACIIGTQFRKLRDGDRFWWENEGVFSMQQRQALAQISLPRIICDNTGITTVSKNNIFMSNSYPRDFVNCSTLPALNLASWREAS
By Km is commonly meant the concentration of substrate that gives half-maximal velocity. In general, kcat refers to the number of substrate molecules converted per active site and unit of time at saturation. B1: the Km under setting [1] is 28.8 µM and the Km under setting [2] is 31 ± 4 µM. Besides, the kcat by setting is: under setting [1], 207 s⁻¹; under setting [2], 186 ± 6 s⁻¹.
